Laboratory results published in CN113564213A.

Key:
[1] = molecular target: 增强型荧光蛋白eGFP (eGFP的A206K突变体, mEGFP); assay: bead capture from 2 mL eGFP IVTT liquid, eGFP in excess, 1 h; fluorescence (RFU) of Total against Flow-through
[2] = molecular target: 增强型荧光蛋白eGFP (eGFP的A206K突变体, mEGFP); assay: bead capture from 1 mL eGFP IVTT liquid, beads in excess, 1 h; fluorescence (RFU) of IVTT supernatant against flow-through

- 载量 (每毫升antiEGFP磁珠结合的eGFP蛋白的质量) [1]: 17.7 mg/mL
- 结合效率 [2]: 98.2%
B1: antiEGFP-mScarlet-Tamvavidin2融合蛋白 (VHH, part only; not given: mScarlet and Tamavidin2 parts, not shown: large carriers)
chain, part: MAQVQLVESGGALVQPGGSLRLSCAASGFPVNRYSMRWYRQAPGKEREWVAGMSSAGDRSSYEDSVKGRFTISRDDARNTVYLQMNSLKPEDTAVYYCNVNVGFEYWGQGTQVTVSS
